{"source": "patent US20160296600A1", "about": "“Relaxin Prodrugs” (ASCENDIS PHARMA RELAXIN DIVISION A/S, priority 2013, published 2016)", "origin": "cited, not measured here", "conditions": "humans, intravenous administration"}
{"substance": "Relaxin: Mature human relaxin, hormonal peptide of approximately 6000 daltons; A-chain SEQ ID NO:1, B-chain SEQ ID NO:2", "values": [{"measurement": "half-life", "value": "less than 10 minutes"}]}
